Data reported in US20180258187A1.
Changes are numbered by the printed parent chain.

Legend:
[1] = biological target: EBV-LMP2 peptide/HLA-A*02:01 complex as naturally presented on HLA-A*02:01+ EBV+ cells (BLCL, tumour cell lines) (human; Epstein-Barr virus); test: cell-based or functional assay
[2] = biological target: EBV-LMP2 peptide presented by HLA-A*02:06 on artificial antigen presenting cells (human; Epstein-Barr virus)
[3] = biological target: P19 peptide (mixture of 19 endogenous control peptides) loaded T2 cell; test: flow cytometry, phage antibody on peptide loaded T2 cells

B1: LMP2-38 Dimeric BsAb (bispecific antibody, part only)
VH: QSALTQPASVSGSPGQSITISCTGTSSDVGSYNDVSWYQQHPGKAPKLMIYDVSNRPSGVSNRFSGSKSGNTASLTISGLQTEDEADYYCNSYTSSNTYVFGTGTKVTVLG
VL: QVQLVQSGAEVKKPGASVQVSCRASGYTITSYYMHWVRQAPGQGLEWMGVINPNAGSTRYAQKFQGRVTMSTDTSTSTVYMALSSLRSDDTAVYYCARGMYRMYDWGQGTLVTVSS
chain 1: DVQLVQSGAEVKKPGASVKVSCKASGYTFTRYTMHWVRQAPGQGLEWIGYINPSRGYTNYADSVKGRFTITTDKSTSTAYMELSSLRSEDTATYYCARYYDDHYSLDYWGQGTTVTVSSGEGTSTGSGGSGGSGGADDIVLTQSPATLSLSPGERATLSCRASQSVSYMNWYQQKPGKAPKRWIYDTSKVASGVPARFSGSGSGTDYSLTINSLEAEDAATYYCQQWSSNPLTFGGGTKVEIK
chain 2: RTPLGDTTHTSGMVSKLSQLQTELLAALLESGLSKEALIQALGEGSGGAPHHHHHH
% Max Killing, DT BLCL (T cell dependent cytotoxicity, 51Cr release) [1]: 39.9%
% Max Killing, F BLCL (T cell dependent cytotoxicity, 51Cr release) [1]: 25.8%
% Max Killing, HONE-1-A2 (T cell dependent cytotoxicity, 51Cr release) [1]: 16.8%
% Max Killing, RPMI-6666 (T cell dependent cytotoxicity, 51Cr release) [1]: 26.5%
EC50 (µg/mL), DT BLCL (T cell dependent cytotoxicity) [1]: 0.025 µg/mL
EC50 (µg/mL), F BLCL (T cell dependent cytotoxicity) [1]: 0.033 µg/mL
EC50 (µg/mL), HONE-1-A2 (T cell dependent cytotoxicity) [1]: 0.024 µg/mL
EC50 (µg/mL), RPMI-6666 (T cell dependent cytotoxicity) [1]: 0.037 µg/mL

B2: LMP2-38 IgG1 (antibody, V domains shown)
VH: B1 VL
VL: B1 VH
number beside the legend entry (name not given; FL2-H histogram) [2]: 81.5

B3: LMP2-38-11 (antibody, name in Kabat numbering, V domains shown)
VH: B1 VL with G26E, I51V
VL: B1 VH
ratio of specific phage antibody FACS signal to negative control FACS signal [3]: 2 to 10
